Results taken from patent US20250326861A1 (REGENXBIO, published 2025).

Target: Activated human plasma kallikrein (Enzyme Research Laboratories) (human, UniProt P03952 20-638)
Test: cell-based or functional assay

Chain of Activated human plasma kallikrein (Enzyme Research Laboratories) (P03952 20-638 limits assumed): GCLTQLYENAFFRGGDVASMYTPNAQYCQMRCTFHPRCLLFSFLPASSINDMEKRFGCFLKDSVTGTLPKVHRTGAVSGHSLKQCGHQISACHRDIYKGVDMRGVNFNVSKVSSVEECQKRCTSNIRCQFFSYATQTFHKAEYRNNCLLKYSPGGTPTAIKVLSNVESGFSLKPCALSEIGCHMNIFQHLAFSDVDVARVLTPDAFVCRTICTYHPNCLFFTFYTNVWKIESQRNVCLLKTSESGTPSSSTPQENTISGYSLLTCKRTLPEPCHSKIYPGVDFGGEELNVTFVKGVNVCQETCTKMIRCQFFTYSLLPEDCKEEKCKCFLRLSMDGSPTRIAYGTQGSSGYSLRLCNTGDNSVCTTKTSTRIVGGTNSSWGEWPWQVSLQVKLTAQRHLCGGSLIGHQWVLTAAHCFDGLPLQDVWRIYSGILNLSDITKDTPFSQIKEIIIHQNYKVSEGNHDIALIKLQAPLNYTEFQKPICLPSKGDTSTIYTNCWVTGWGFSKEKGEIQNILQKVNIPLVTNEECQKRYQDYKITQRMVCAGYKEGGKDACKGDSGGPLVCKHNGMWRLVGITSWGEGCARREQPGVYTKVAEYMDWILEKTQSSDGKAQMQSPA

B1: Lanadelumab (full length anti-pKal antibody) (antibody, IgG1, V domains shown)
VH: EVQLLESGGGLVQPGGSLRLSCAASGFTFSHYIMMWVRQAPGKGLEWVSGIYSSGGITVYADSVKGRFTISRDNSKNTLYLQMNSLRAEDTAVYYCAYRRIGVPRRDEFDIWGQGTMVTVSS
VL: DIQMTQSPSTLSASVGDRVTITCRASQSISSWLAWYQQKPGKAPKLLIYKASTLESGVPSRFSGSGSGTEFTLTISSLQPDDFATYYCQQYNTYWTFGQGTKVEIK
  IC50 (read off the curve), 6.25 nM pKal: ~2 nM
  IC50 (read off the curve), 12.5 nM pKal: ~4 nM
